From the supplement of paper PMC11908140 come the findings set out here.

B1: library; numbered along this chain (parent)
chain: MRKPRAAVGSGHRKQAASQEGRQKHAKNNSQAKPSACDGLARQPEEVVLQASVSSYHLFRDVAEVTAFRGSLLSWYDQEKRDLPWRRRAEDEMDLDRRAYAVWVSEVMLQQTQVATVINYYTGWMQKWPTLQDLASASLEEVNQLWAGLGYYSRGRRLQEGARKVVEELGGHMPRTAETLQQLLPGVGRYTAGAIASIAFGQATGVVDGNVARVLCRVRAIGADPSSTLVSQQLWGLAQQLVDPARPGDFNQAAMELGATVCTPQRPLCSQCPVESLCRARQRVEQEQLLASGSLSGSPDVEECAPNTGQCHLCLPPSEPWDQTLGVVNFPRKASRKPPREESSATCVLEQPGALGAQILLVQRPNSGLLAGLWEFPSVTWEPSEQLQRKALLQELQRWAGPLPATHLRHLGEVVHTFSHIKLTYQVYGLALEGQTPVTTVPPGARWLTQEEFHTAAVSTAMKKVFRVYQGQQPGTCMGSKRSQVSSPCSRKKPRMGQQVLDNFFRSHISTDAHSLNSAAQ

Variants of B1 are the subject of this data set. Briefly: 8OG:A repair function score (normalized; synonymous = 0, nonsense = -1) (normalized log-likelihood score); higher = more repair activity (WT-like). To be noted: with 8OG:A DNA repair reporter (GFP) in HEK-293 MUTYH KO cells. An outline of the steps:
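MUTYH knockout HEK-293 cells carrying lentiviral MUTYH cDNA NNN codon-scan libraries were grown with 10 pg/ml doxycycline and co-transfected with mCherry and a GFP reporter of 8OG:A repair. Viable mCherry+ cells were sorted at 72 h into GFP+ (repair) and GFP− bins, with three replicates per tile, and tile amplicons were sequenced. Rosace fitness scores for each tile were turned into a normalized repair function score anchored on the synonymous and nonsense distributions. Synonymous medians were set to 0 and nonsense medians to -1, and variants below 300 counts per million at the start were dropped.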
Take MRKPRAAVGSGHRKQAASQEGRQKHAKNNSQAKPSACDGLARQPEEVVLQASVSSYHLFRDVAEVTAFRGSLLSWYDQEKRDLPWRRRAEDEMDLDRRAYAVWVSEVMLQQTQVATVINYYTGWMQKWPTLQDLASASLEEVNQLWAGLGYYSRGRRLQEGARKVVEELGGHMPRTAETLQQLLPGVGRYTAGAIASIAFGQATGVVDGNVARVLCRVRAIGADPSSTLVSQQLWGLAQQLVDPARPGDFNQAAMELGATVCTPQRPLCSQCPVESLCRARQRVEQEQLLASGSLSGSPDVEECAPNTGQCHLCLPPSEPWDQTLGVVNFPRKASRKPPREESSATCVLEQPGALGAQILLVQRPNSGLLAGLWEFPSVTWEPSEQLQRKALLQELQRWAGPLPATHLRHLGEVVHTFSHIKLTYQVYGLALEGQTPVTTVPPGARWLTQEEFHTAAVSTAMKKVFRVYQGQQPGTCMGSKRSQVSSPCSRKKPRMGQQVLDNFFRSHISTDWHSLNSAAQ [A513W]: the “8OG:A repair function score” value is -0.0476.

For MRKPRAAVGSGHRKQAASQEGRQKHAKNNSQAKPSACDGLARQPEEVVLQASVSSYHLFRDVAEVTAFRGSLLSWYDQEKRDLPWRRRAEDEMDLDRRAYAVWVSEVMLQQTQVATVINYYTGWMQKWPTLQDLASASLEEVNQLWAGLGYYSRGRRLQEGARKVVEELGGHMPRTAETLQQLLPGVGRYTAGAIASIAFGQATGVVDGNVARVLCRVRAIGADPSSTLVSQQLWGLAQQLVDPARPGDFNQAAMELGATVCTPQRPLCSQCPVESLCRARQRVEQEQLLASGSLSGSPDVEECAPNTGQCHLCLPPSEPWDQTLGVVNFPRKASRKPPREESSATCVLEQPGALGAQILLVQRPNSGLLAGLWEFPSVTWEPSEQLQRKALLQELQRWAGPLPATHLRHLGEVVHTFSHIKLTYQVYGLALEGQTPVTTVPPGARWLTQEEFHTAAVSTAMKKVFRVYQGQQPGTCMGSKRSQVSSPCSRKKPRMGQQVLDNFFRSHISTDGHSLNSAAQ [A513G], the “8OG:A repair function score” value came to 0.0049. For MRKPRAAVGSGHRKQAASQEGRQKHAKNNSQAKPSACDGLARQPEEVVLQASVSSYHLFRDVAEVTAFRGSLLSWYDQEKRDLPWRRRAEDEMDLDRRAYAVWVSEVMLQQTQVATVINYYTGWMQKWPTLQDLASASLEEVNQLWAGLGYYSRGRRLQEGARKVVEELGGHMPRTAETLQQLLPGVGRYTAGAIASIAFGQATGVVDGNVARVLCRVRADGADPSSTLVSQQLWGLAQQLVDPARPGDFNQAAMELGATVCTPQRPLCSQCPVESLCRARQRVEQEQLLASGSLSGSPDVEECAPNTGQCHLCLPPSEPWDQTLGVVNFPRKASRKPPREESSATCVLEQPGALGAQILLVQRPNSGLLAGLWEFPSVTWEPSEQLQRKALLQELQRWAGPLPATHLRHLGEVVHTFSHIKLTYQVYGLALEGQTPVTTVPPGARWLTQEEFHTAAVSTAMKKVFRVYQGQQPGTCMGSKRSQVSSPCSRKKPRMGQQVLDNFFRSHISTDAHSLNSAAQ [I221D], the “8OG:A repair function score” value is -1.02. The figure for MRKPRAAVGSGHRKQAASQEGRQKHAKNNSQAKPSACDGLARQPEEVVLQASVSSYHLFRDVAEVTAFRGSLLSWYDQEKRDLPWRRRAEDEMDLDRRAYAVWVSEVMLQQTQVATVINYYTGWMQKWPTLQDLASASLEEVNQLWAGLGYYSRGRRLQEGARKVVEELGGHMPRTAETLQQLLPGVGRYTAGAIASIAFGQTTGVVDGNVARVLCRVRAIGADPSSTLVSQQLWGLAQQLVDPARPGDFNQAAMELGATVCTPQRPLCSQCPVESLCRARQRVEQEQLLASGSLSGSPDVEECAPNTGQCHLCLPPSEPWDQTLGVVNFPRKASRKPPREESSATCVLEQPGALGAQILLVQRPNSGLLAGLWEFPSVTWEPSEQLQRKALLQELQRWAGPLPATHLRHLGEVVHTFSHIKLTYQVYGLALEGQTPVTTVPPGARWLTQEEFHTAAVSTAMKKVFRVYQGQQPGTCMGSKRSQVSSPCSRKKPRMGQQVLDNFFRSHISTDAHSLNSAAQ [A203T] is 0.03. Regarding MRKPRAAVGSGHRKQAASQEGRQKHAKNNSQAKPSACDGLARQPEEVVLYASVSSYHLFRDVAEVTAFRGSLLSWYDQEKRDLPWRRRAEDEMDLDRRAYAVWVSEVMLQQTQVATVINYYTGWMQKWPTLQDLASASLEEVNQLWAGLGYYSRGRRLQEGARKVVEELGGHMPRTAETLQQLLPGVGRYTAGAIASIAFGQATGVVDGNVARVLCRVRAIGADPSSTLVSQQLWGLAQQLVDPARPGDFNQAAMELGATVCTPQRPLCSQCPVESLCRARQRVEQEQLLASGSLSGSPDVEECAPNTGQCHLCLPPSEPWDQTLGVVNFPRKASRKPPREESSATCVLEQPGALGAQILLVQRPNSGLLAGLWEFPSVTWEPSEQLQRKALLQELQRWAGPLPATHLRHLGEVVHTFSHIKLTYQVYGLALEGQTPVTTVPPGARWLTQEEFHTAAVSTAMKKVFRVYQGQQPGTCMGSKRSQVSSPCSRKKPRMGQQVLDNFFRSHISTDAHSLNSAAQ [Q50Y], the “8OG:A repair function score” value is -0.0626. The same measure for MRKPRAAVGSGHRKQAASQEGRQKHAKNNSQAKPSACDGLARQPEEVVLQASVSSYHLFRDVAEVTAFRGSLLSWYDQEKRDLPWRRRAEDEMDLDRRAYAVWVSEVMLQQTQVATVINYYTGWMQKWPTLQDLASASLEEVNQLWAGLGYYSRGRRLQEGARKVVEELGGHMPRTAETLQQLLPGVGRYTAGAIASIAFGQATGVVDGNVARVLCRVRAIGADPSSTLVSQQLWGLAQQLVDPARPGDFNQAAMELGATVCTPQRPLCSQCPVESLCRARQRVEQEQLLASGSLSGSPDVEECAPNTGQCHLLLPPSEPWDQTLGVVNFPRKASRKPPREESSATCVLEQPGALGAQILLVQRPNSGLLAGLWEFPSVTWEPSEQLQRKALLQELQRWAGPLPATHLRHLGEVVHTFSHIKLTYQVYGLALEGQTPVTTVPPGARWLTQEEFHTAAVSTAMKKVFRVYQGQQPGTCMGSKRSQVSSPCSRKKPRMGQQVLDNFFRSHISTDAHSLNSAAQ [C314L]: -0.616; for MRKPRAAVGSGHRKQAASQEGRQKHAKNNSQAKPSACDGLARQPEEVVLQASVSSYHLFRDVAEVTAFRGSLLSWYDQEKRDLPWRRRAEDEMDLDRRAYAVWVSEVMLQQTQVATVINYYTGWMQKWPTLQDLASASLEEVNQLWAGLGYYSRGRRLQEGARKVVEELGGHMPRTAETLQQLLPGVGRYTAGAIASIAFGQATGVVDGNVARVLCRVRAIGADPSSTLVSQQLWGLAQQLVDPARPGDFNQAAMELGATVCTPQRPLCSQCPVESLCRARQRVEQEQLLASGSLSGSPDVEECAPNTGQCHLCLPPSEPWDQTLGVVNFPRKASRKPPREESSATCVLEQPGALGAQILLVQRPNSGLLAGLWYFPSVTWEPSEQLQRKALLQELQRWAGPLPATHLRHLGEVVHTFSHIKLTYQVYGLALEGQTPVTTVPPGARWLTQEEFHTAAVSTAMKKVFRVYQGQQPGTCMGSKRSQVSSPCSRKKPRMGQQVLDNFFRSHISTDAHSLNSAAQ [E375Y]: -0.285; for MRKPRAAVGSGHRKQAASQEGRQKHAKNNSQAKPSACDGLARQPEEVVLQASVSSYHLFRDVAEVTAFRGSLLSWYDQEKRDLPWRRRAEDEMDLDRRAYAVWVSEVMLQQTQVATVINYYTGWMQKWPTLQDLASASLEEVNQLWAGLGYYSRGRRLQEGARKVVEELGGHMPRTAETLQQLLPGVGRYTAGAIASIAFGQATGVVDGNVARVLCRVRAIGADPNSTLVSQQLWGLAQQLVDPARPGDFNQAAMELGATVCTPQRPLCSQCPVESLCRARQRVEQEQLLASGSLSGSPDVEECAPNTGQCHLCLPPSEPWDQTLGVVNFPRKASRKPPREESSATCVLEQPGALGAQILLVQRPNSGLLAGLWEFPSVTWEPSEQLQRKALLQELQRWAGPLPATHLRHLGEVVHTFSHIKLTYQVYGLALEGQTPVTTVPPGARWLTQEEFHTAAVSTAMKKVFRVYQGQQPGTCMGSKRSQVSSPCSRKKPRMGQQVLDNFFRSHISTDAHSLNSAAQ [S226N]: 0.261. On to MRKPRAAVGSGHRKQAASQEGRQKHAKNNSQAKPSACDGLARQPEEVVLQASVSSYHLFRDVAEVTAFRGSLLSWYDQEKRDLPWRRRAEDEMDLDRRAYAVWVSEVMLQQTQVATVINYYTGWMQKWPTLQDLASASLEEVNQLWAGLGYYSRGRRLQEGARKVVEELGGHMPRTAETLQQLLPGVGRYTAGAIASIAFGQATGVVDGNVARVLCRVRAIGADPSSTLVSQQLWGLAQQLVDPARPGDFNQAAMELGATVCTPQRPLCSQCPVESLCRARQRVEQEQLLASGSLSGSPDVEECAPNTGQCHLCLPPSEPWDQTLGVLNFPRKASRKPPREESSATCVLEQPGALGAQILLVQRPNSGLLAGLWEFPSVTWEPSEQLQRKALLQELQRWAGPLPATHLRHLGEVVHTFSHIKLTYQVYGLALEGQTPVTTVPPGARWLTQEEFHTAAVSTAMKKVFRVYQGQQPGTCMGSKRSQVSSPCSRKKPRMGQQVLDNFFRSHISTDAHSLNSAAQ [V328L], for which the “8OG:A repair function score” value came out at 0.0391.

On to MRKPRAAVGSGHRKQAASQEGRQKHAKNNSQAKPSACDGLARQPEEVVLQASVSSYHLFRDVAEVTAFRGSLLSWYDQEKRDLPWRRRAEDEMDLDRRAYAVWVSEVMLQQTQVATVINYYTGWMQKWPTLQDLASASLEEVNQLWAGLGYYSRGRRLQEGARKVVEELGGHMPRTAETLQQLLPGVGRYTAGAIASIAFGQATGVVDGNVARVLCRVRAIGADPSSTLVSVQLWGLAQQLVDPARPGDFNQAAMELGATVCTPQRPLCSQCPVESLCRARQRVEQEQLLASGSLSGSPDVEECAPNTGQCHLCLPPSEPWDQTLGVVNFPRKASRKPPREESSATCVLEQPGALGAQILLVQRPNSGLLAGLWEFPSVTWEPSEQLQRKALLQELQRWAGPLPATHLRHLGEVVHTFSHIKLTYQVYGLALEGQTPVTTVPPGARWLTQEEFHTAAVSTAMKKVFRVYQGQQPGTCMGSKRSQVSSPCSRKKPRMGQQVLDNFFRSHISTDAHSLNSAAQ [Q232V], for which the “8OG:A repair function score” value was -0.243.

MRKPRAAVGSGHRKQAASQEGRQKHAKNNSQAKPSACDGLARQPEEVVLQASVSSYHLFRDVAEVTAFRGSLLSWYDQEKRDLPWRRRAEDEMDLDRRAYAVWVSEVMLQQTQVATVINYYTGWMQKWPTLQDLASASLEEVNQLWAGLGYYSRGRRLQEGARKVVEELGGHMPRTAETLQQLLPGVGRYTAGAIASIAFGQAVGVVDGNVARVLCRVRAIGADPSSTLVSQQLWGLAQQLVDPARPGDFNQAAMELGATVCTPQRPLCSQCPVESLCRARQRVEQEQLLASGSLSGSPDVEECAPNTGQCHLCLPPSEPWDQTLGVVNFPRKASRKPPREESSATCVLEQPGALGAQILLVQRPNSGLLAGLWEFPSVTWEPSEQLQRKALLQELQRWAGPLPATHLRHLGEVVHTFSHIKLTYQVYGLALEGQTPVTTVPPGARWLTQEEFHTAAVSTAMKKVFRVYQGQQPGTCMGSKRSQVSSPCSRKKPRMGQQVLDNFFRSHISTDAHSLNSAAQ [T204V]: the “8OG:A repair function score” value worked out at 0.0534. The figure for MRKPRAAVGSGHRKQAASQEGRQKHAKNNSQAKPSACDGLARQPEEVVLQASVSSYHLFRDVAEVTAFRGSLLSWYDQEKRDLPWRRRAEDEMDLDRRAYAVWVSEVMLQQTQVATVINYYTGWMQKWPTLQDLASASLEEVNQLWAGLGYYSRGRRLQEGARKVVEELGGHMPRTAETLQQLLPGVGRYTAGAIASIAFGQATGVKDGNVARVLCRVRAIGADPSSTLVSQQLWGLAQQLVDPARPGDFNQAAMELGATVCTPQRPLCSQCPVESLCRARQRVEQEQLLASGSLSGSPDVEECAPNTGQCHLCLPPSEPWDQTLGVVNFPRKASRKPPREESSATCVLEQPGALGAQILLVQRPNSGLLAGLWEFPSVTWEPSEQLQRKALLQELQRWAGPLPATHLRHLGEVVHTFSHIKLTYQVYGLALEGQTPVTTVPPGARWLTQEEFHTAAVSTAMKKVFRVYQGQQPGTCMGSKRSQVSSPCSRKKPRMGQQVLDNFFRSHISTDAHSLNSAAQ [V207K] is -0.909.
